The source of these data is patent US10337022B2, “Methods of increasing root biomass in plants” (Agresearch Limited, priority 2014, dated 2019).

The target in one test is T1, BZR1 (Arabidopsis thaliana, UniProt Q8S307).
T1 construct: expressed in transfected cells; host or cells: yeast strain MaV203
T1 sequence (Q8S307 with tags, fused parts or gaps): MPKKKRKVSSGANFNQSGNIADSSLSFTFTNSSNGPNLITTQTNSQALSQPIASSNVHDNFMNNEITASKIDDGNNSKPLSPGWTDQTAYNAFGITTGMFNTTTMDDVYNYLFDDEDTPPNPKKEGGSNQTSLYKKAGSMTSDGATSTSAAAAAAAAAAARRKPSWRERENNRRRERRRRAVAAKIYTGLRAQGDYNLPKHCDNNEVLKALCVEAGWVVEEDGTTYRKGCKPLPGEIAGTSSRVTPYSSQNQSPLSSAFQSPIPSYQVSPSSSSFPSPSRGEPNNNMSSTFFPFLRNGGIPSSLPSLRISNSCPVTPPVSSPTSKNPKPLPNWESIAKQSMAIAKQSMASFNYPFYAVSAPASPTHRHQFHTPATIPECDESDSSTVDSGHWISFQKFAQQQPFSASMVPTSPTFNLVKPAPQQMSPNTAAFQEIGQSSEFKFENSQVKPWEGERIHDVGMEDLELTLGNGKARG
Briefly: Yeast two hybrid (Y2H) interaction with BZR1. The following applies: yeast strain MaV203. The class given is binding.

The test system of test [1] is PEAPOD deletion mutant Δppd Arabidopsis thaliana ecotype Landsberg erecta. As to the kind of experiment: Complementation of the Arabidopsis Δppd mutant leaf phenotype. The class given is in vivo. Particulars: optimized PEAPOD coding sequence under CaMV35s promoter, seedlings (FIG. 13). An excerpt: The functionality of any PEAPOD sequence can be confirmed by complementation of the Arabidopsis Δppd mutant leaf phenotype. Complementation of the Arabidopsis Δppd mutant leaf phenotype was first used to identify the Arabidopsis PPD gene (White 2006). This was seen by a restoration of the wild type flattened leaf phenotype and normal rosette shape as opposed to the domed leaf and the twisting of the rosette to a “propeller” phenotype.
Constructs above can be transformed into Arabidopsis by the floral dip infiltration method (Clough and Bent, 1998 Plant J 16, 735-43). The Δppd line is transformed to express the PPD polypeptides by standard techniques. Transgenic plants are confirmed by standard PCR analysis techniques with a combination of transgene-specific and T-DNA primers.
Complementation of the Δppd line to produce a wild-type leaf and rosette phenotype in T1 seedlings (the off-spring of the infiltrated plant) confirms PEAPOD functionality of the introduced gene, which can be shown in photographs.

In the next test the target is T2, NINJA (Arabidopsis thaliana, UniProt Q9SV55).
T2 construct: expressed in transfected cells; host or cells: yeast strain MaV203
T2 sequence (Q9SV55 with tags, fused parts or gaps): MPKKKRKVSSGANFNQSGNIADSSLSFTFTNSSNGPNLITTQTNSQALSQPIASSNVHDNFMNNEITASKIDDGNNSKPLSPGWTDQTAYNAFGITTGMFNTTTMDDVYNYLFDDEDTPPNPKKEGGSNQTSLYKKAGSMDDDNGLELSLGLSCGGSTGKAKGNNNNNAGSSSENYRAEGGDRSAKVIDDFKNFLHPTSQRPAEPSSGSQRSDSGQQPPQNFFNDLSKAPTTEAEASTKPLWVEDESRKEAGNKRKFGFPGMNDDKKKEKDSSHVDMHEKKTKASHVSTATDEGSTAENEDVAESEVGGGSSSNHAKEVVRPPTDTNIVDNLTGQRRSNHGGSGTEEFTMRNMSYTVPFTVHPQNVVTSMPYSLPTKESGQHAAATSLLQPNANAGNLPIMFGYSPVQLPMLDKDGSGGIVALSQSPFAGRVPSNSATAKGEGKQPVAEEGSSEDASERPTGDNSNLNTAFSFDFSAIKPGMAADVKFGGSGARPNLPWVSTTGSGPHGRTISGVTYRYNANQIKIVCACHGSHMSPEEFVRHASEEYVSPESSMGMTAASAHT
As to the kind of experiment: Yeast two hybrid (Y2H) interaction with NINJA. The class given is binding. Particulars: PPD1 as bait protein. The method, then: Combinations of bait and prey constructs were used to co-transform yeast strain MaV203 (Invitrogen), with selection on synthetic dropout (SD) SD/-Leu/-Trp agar plates. Transformed strains were tested for interactions using 10 μl droplets of 1 in 10 and 1 in 100 dilutions on SD/-Leu/-Trp/-His plates with different concentrations of 3-aminotriazol (3-AT) (Sigma).

Another test has as its system ryegrass plants. As to the kind of experiment: Root biomass analysis of ryegrass transformants. The class given is in vivo. Particulars: approximately 6 weeks in glasshouse. The method, then:
An equal number (typically 4-10) of tillers were taken from WT and ryegrass plants transformed with Arabidopsis PPD under a constitutive promoter. Tillers were planted into plastic grow bags containing potting mix and pruned to be of equal height. […] The increase in root biomass was quantified by washing the roots under running water then removing the attached above ground portion (leaves and stems) and drying the roots at 65° C. for 48 hr then weighing the dry weights (Table 2).
An equal number (typically 4-10) of tillers were taken from WT and ryegrass plants transformed with Arabidopsis PPD under one of three root promoters. Tillers were planted into plastic grow bags containing potting mix and pruned to be of equal height. […] The increase in root biomass was quantified by washing the roots under running water then removing the attached above ground portion (leaves and stems) and drying the roots at 65° C. for 48 hr then weighing the dry weights (Table 3 and Table 4)

B1: Arabidopsis PPD: Arabidopsis thaliana PEAPOD 1 protein, At4g14713, SEQ ID NO: 1 (protein, listed as Arabidopsis thaliana)
chain: MDVGVSPAKSILAKPLKLLTEEDISQLTREDCRKFLKDKGMRRPSWNKSQAIQQVLSLKALYEPGDDSGAGIFRKILVSQPVNPPRVTTTLIEPSNELEACGRVSYPEDNGACHRMDSPRSAEFSGGSGHFVSEKDGHKTTISPRSPAETSELVGQMTIFYSGKVNVYDGIPPEKARSIMHFAANPIDLPENGIFASSRMISKLISKEKMMELPQKGLEKANSSRDSGMEGQANRKVSLQRYREKRKDRKFSKAKKCPGVASSSLEMFLNCQPRMKAAYSQNLGCTGSPLHSQSPESQTKSPNLSVDLNSEGI
B1: the “Y2H direct interaction with BZR1” value with BZR1 is on record as “no direct interaction”. Further, the “PEAPOD functionality by complementation of Δppd mutant” value in test [1] is on record as “functionally equivalent”. In addition, the “Y2H interaction with NINJA” value with NINJA is “direct interactor”. The “root growth beyond the grow bag compared to WT plants” value in the test with ryegrass plants (constitutive promoter) and in the test with ryegrass plants (one of three root promoters) was “increase in root biomass/growth/length/branching” each time.
